In US11352401 one finds peptide exchange yield data, which are given here for 62 molecules.

The first assay addresses T1, HLA-A*01 (human).
T1 construct: MHC monomer made peptide-receptive by UV cleavage of a UV-sensitive ligand; also called peptide-receptive MHC class I monomer
Description: UV peptide-exchange ELISA; +++ = yield >50%. The text has this: Candidate peptides for T cell based therapies according to the present invention were further tested for their MHC binding capacity (affinity). The individual peptide-MHC complexes were produced by UV-ligand exchange, where a UV-sensitive peptide is cleaved upon UV-irradiation, and exchanged with the peptide of interest as analyzed. Only peptide candidates that can effectively bind and stabilize the peptide-receptive MHC molecules prevent dissociation of the MHC complexes. To determine the yield of the exchange reaction, an ELISA was performed based on the detection of the light chain (β2m) of stabilized MHC complexes. The assay was performed as generally described in Rodenko et al. (Rodenko et al., 2006).
96 well MAXISorp plates (NUNC) were coated over night with 2 ug/ml streptavidin in PBS at room temperature, washed 4× and blocked for 1 h at 37° C. in 2% BSA containing blocking buffer. […] Peptide-MHC monomers of the UV-exchange reaction were diluted 100-fold in blocking buffer. Samples were incubated for 1 h at 37° C., washed four times, incubated with 2 ug/ml HRP conjugated anti-β2m for 1h at 37° C., washed again and detected with TMB solution that is stopped with […]. Absorption was measured at 450 nm.
Regarding HTDSLHLLI [HTDSLHLLI (SEQ ID NO: 152)], the peptide exchange yield was 50 to 75%.

In turn, RTDSCSSAQAQY [RTDSCSSAQAQY (SEQ ID NO: 172)] came in with a peptide exchange yield of 50 to 75%.

On to LLDISQKNLY [LLDISQKNLY (SEQ ID NO: 154)], for which the peptide exchange yield is 50 to 75%.

In the case of VADLHLYLY [VADLHLYLY (SEQ ID NO: 187)], the peptide exchange yield was 50 to 75%.

In the case of LVDNSIRELQY [LVDNSIRELQY (SEQ ID NO: 162)], the peptide exchange yield fell in the range of 50 to 75%.

KLDRSVFTAY [KLDRSVFTAY (SEQ ID NO: 153)] yielded a peptide exchange yield of 50 to 75%.

Take TADGKTYYY [TADGKTYYY (SEQ ID NO: 181)]: the peptide exchange yield lay in the range of 50 to 75%.

NTQITDIGRY [NTQITDIGRY (SEQ ID NO: 166)] gave a peptide exchange yield of 50 to 75%.

For the molecule ASEQQALHTVQY [ASEQQALHTVQY (SEQ ID NO: 398)], the peptide exchange yield lay within 50 to 75%.

Molecule ELDSKVEVLTY [ELDSKVEVLTY (SEQ ID NO: 403)] displayed a peptide exchange yield of 50 to 75%.

VSDAKLDKY [VSDAKLDKY (SEQ ID NO: 188)]: the peptide exchange yield is 50 to 75%.

As to YADTVRPEFY [YADTVRPEFY (SEQ ID NO: 197)], the peptide exchange yield lay in the range of 50 to 75%.

LLDSLREQY [LLDSLREQY (SEQ ID NO: 156)] returned a peptide exchange yield of 50 to 75%.

For the molecule TSAHPEDSSFY [TSAHPEDSSFY (SEQ ID NO: 184)], the peptide exchange yield fell in the range of 50 to 75%.

As to VTDGINPLIDRY [VTDGINPLIDRY (SEQ ID NO: 190)], the peptide exchange yield was 50 to 75%.

Take LVDDGTHGQY [LVDDGTHGQY (SEQ ID NO: 161)]: the peptide exchange yield fell in the range of 50 to 75%.

Consider DTDSQRLAY [DTDSQRLAY (SEQ ID NO: 402)], for which the peptide exchange yield was in the range of 50 to 75%.

For QSDPGTSVLGY [QSDPGTSVLGY (SEQ ID NO: 167)], the peptide exchange yield was 50 to 75%.

In turn, SRTINVSNLY [SRTINVSNLY (SEQ ID NO: 176)] had a peptide exchange yield of 50 to 75%.

For the molecule TDYHVRVY [TDYHVRVY (SEQ ID NO: 182)], the peptide exchange yield is 50 to 75%.

As to NSDSSLTLREFY [NSDSSLTLREFY (SEQ ID NO: 163)], the peptide exchange yield lay in the range of 50 to 75%.

Molecule LTEAVLNRY [LTEAVLNRY (SEQ ID NO: 160)] gave a peptide exchange yield of 50 to 75%.

Regarding VTDGSLYEGVAY [VTDGSLYEGVAY (SEQ ID NO: 191)], the peptide exchange yield lay in the range of 50 to 75%.

Consider ATDISRQNEY [ATDISRQNEY (SEQ ID NO: 400)], for which the peptide exchange yield was in the range of 50 to 75%.

For the molecule TTDIIEKY [TTDIIEKY (SEQ ID NO: 186)], the peptide exchange yield fell in the range of 50 to 75%.

NTDPTAPPY [NTDPTAPPY (SEQ ID NO: 165)] had a peptide exchange yield of 50 to 75%.

In turn, VVDSVGGYLY [VVDSVGGYLY (SEQ ID NO: 195)] gave a peptide exchange yield of 50 to 75%.

In the case of HSDLKVGEY [HSDLKVGEY (SEQ ID NO: 151)], the peptide exchange yield fell in the range of 50 to 75%.

The target in the next assay is T2, HLA-A*02 (human).
T2 construct: MHC monomer made peptide-receptive by UV cleavage of a UV-sensitive ligand; also called peptide-receptive MHC class I monomer
Description: UV peptide-exchange ELISA; ++++ = yield >75%. (An ELISA detects its analyte on a solid surface through an enzyme-linked reagent.)
LLLGSIGLLGV [LLLGSIGLLGV (SEQ ID NO: 109)] yielded a peptide exchange yield of over 75%.

Take ITIGVLARV [ITIGVLARV (SEQ ID NO: 95)]: the peptide exchange yield was over 75%.

MLLETQDALYV [MLLETQDALYV (SEQ ID NO: 115)]: the peptide exchange yield is over 75%.

SVASVLLYL [SVASVLLYL (SEQ ID NO: 124)] came in with a peptide exchange yield of over 75%.

Take FVIDGFDEL [FVIDGFDEL (SEQ ID NO: 86)]: the peptide exchange yield is over 75%.

SLLTHIPTA [SLLTHIPTA (SEQ ID NO: 105)] returned a peptide exchange yield of over 75%.

In turn, YIDEFQSLV [YIDEFQSLV (SEQ ID NO: 85)] showed a peptide exchange yield of over 75%.

TLYPYQISQL [TLYPYQISQL (SEQ ID NO: 87)] yielded a peptide exchange yield of over 75%.

For VLPDIETLIGV [VLPDIETLIGV (SEQ ID NO: 94)], the peptide exchange yield was over 75%.

The molecule ALLANLPAV [ALLANLPAV (SEQ ID NO: 120)] had a peptide exchange yield of over 75%.

In turn, RQYPTPFQL [RQYPTPFQL (SEQ ID NO: 100)] returned a peptide exchange yield of over 75%.

Turning to ILDERQVLL [ILDERQVLL (SEQ ID NO: 114)], the peptide exchange yield is over 75%.

The molecule FLKEKVPGI [FLKEKVPGI (SEQ ID NO: 99)] had a peptide exchange yield of over 75%.

Consider LQSSGLTLLL [LQSSGLTLLL (SEQ ID NO: 98)], for which the peptide exchange yield is over 75%.

Turning to TLQEKILQV [TLQEKILQV (SEQ ID NO: 93)], the peptide exchange yield was over 75%.

In turn, VLALVNSTV [VLALVNSTV (SEQ ID NO: 97)] yielded a peptide exchange yield of over 75%.

With ILSTTMVTV [ILSTTMVTV (SEQ ID NO: 89)], the peptide exchange yield is over 75%.

As to RTADITVTV [RTADITVTV (SEQ ID NO: 119)], the peptide exchange yield is over 75%.

HLVGGLHTV [HLVGGLHTV (SEQ ID NO: 96)]: the peptide exchange yield was over 75%.

On to LLQGAIESV [LLQGAIESV (SEQ ID NO: 107)], for which the peptide exchange yield was over 75%.

As for SVSDGIHSV [SVSDGIHSV (SEQ ID NO: 112)], the peptide exchange yield was over 75%.

Turning to ALLEMFPEITV [ALLEMFPEITV (SEQ ID NO: 122)], the peptide exchange yield was over 75%.

VLMEENSKL [VLMEENSKL (SEQ ID NO: 116)] gave a peptide exchange yield of over 75%.

As to FIIDTTYPAYV [FIIDTTYPAYV (SEQ ID NO: 106)], the peptide exchange yield was over 75%.

For the molecule YVDINTFRL [YVDINTFRL (SEQ ID NO: 84)], the peptide exchange yield was over 75%.

In the case of AVLTGLVEV [AVLTGLVEV (SEQ ID NO: 113)], the peptide exchange yield is over 75%.

For FLDPNARPLV [FLDPNARPLV (SEQ ID NO: 117)], the peptide exchange yield is over 75%.

Molecule ALVDTLTGI [ALVDTLTGI (SEQ ID NO: 121)] registered a peptide exchange yield of over 75%.

FLYYPDPVL [FLYYPDPVL (SEQ ID NO: 103)] gave a peptide exchange yield of over 75%.

For ALSSVLHSI [ALSSVLHSI (SEQ ID NO: 118)], the peptide exchange yield was over 75%.

For the molecule VQMVITEAQKV [VQMVITEAQKV (SEQ ID NO: 88)], the peptide exchange yield was over 75%.

Take GMLDIFWGV [GMLDIFWGV (SEQ ID NO: 104)]: the peptide exchange yield is over 75%.

With LLADFQALL [LLADFQALL (SEQ ID NO: 110)], the peptide exchange yield was over 75%.

SLLEQAIAL [SLLEQAIAL (SEQ ID NO: 102)] displayed a peptide exchange yield of over 75%.
